Source: patent US20240294611A1 (University of Texas, published 2024)
Numbering of substitutions follows the chain as printed. Where “and” joins values, the source holds several entries; their conditions need not be identical. Equal values may be shown once. Read-outs that look alike come from different tables or passages of the source.

Key:
[1] = target: HexaPro E1031R (SARS-CoV-2, UniProt P0DTC2 14-1208)
[2] = target: SARS-CoV-2 B.1.1.7 (variant Alpha) spike on pseudovirus (SARS-CoV-2, UniProt P0DTC2 14-1273); test: cell-based or functional assay
[3] = target: T1, wild-type SARS-CoV-2 spike without stabilizing modifications (on cells or pseudovirus) (SARS-CoV-2, UniProt P0DTC2 14-1273); test: cell-based or functional assay
[4] = target: T2, SARS-CoV-2 D614G spike without stabilizing modifications (on cells or pseudovirus) (SARS-CoV-2, UniProt P0DTC2 14-1273); test: cell-based or functional assay
[5] = target: T3, aglycosylated HexaPro (HexaPro treated with Endo H) (SARS-CoV-2, UniProt P0DTC2 14-1208); test: BLI equilibrium, IgG on anti-Fc tips
[6] = target: T3, aglycosylated HexaPro (HexaPro treated …); test: BLI equilibrium, IgG on anti-Fc sensor
[7] = target: T1, wild-type SARS-CoV-2 spike without …; test: cell-based or functional assay; remark: listed apart in the source
[8] = target: T2, SARS-CoV-2 D614G spike without …; test: cell-based or functional assay; remark: listed apart in the source
[9] = target: T4, SARS-CoV-2 HexaPro S2 (isolated S2 domain) (SARS-CoV-2, UniProt P0DTC2 697-1208)
[10] = target: T4, SARS-CoV-2 HexaPro S2 (isolated S2 …); remark: listed apart in the source
[11] = target: T4, SARS-CoV-2 HexaPro S2 (isolated S2 …); remark: listed apart in the source
[12] = target: T4, SARS-CoV-2 HexaPro S2 (isolated S2 …); remark: listed apart in the source
[13] = target: T4, SARS-CoV-2 HexaPro S2 (isolated S2 …); remark: listed apart in the source
[14] = target: T4, SARS-CoV-2 HexaPro S2 (isolated S2 …); test: BLI equilibrium, IgG on anti-Fc tips
[15] = target: T4, SARS-CoV-2 HexaPro S2 (isolated S2 …); test: BLI; column head says Fab Kd, footnote says immobilized IgG
[16] = target: soluble SARS-CoV-2 spike protein variant 4PDS (SARS-CoV-2, UniProt P0DTC2 14-1208)

B1: 3A3 full-length antibody (mouse variable region-human IgG1 constant region chimera) (antibody, V domains shown)
VH: QVQLQQSGAELLKPGASVKLSCTASGFNIKDTYIHWLKQRPEQGLEWIGRIGPAIGNTIYAPKFQGKATITTDTSSNTAYLQLSSLTSEDTAVYYCARYYGSSYYYFDYWGQGTTLTVSS
VL: DIVMTQSAPSVPVTPGESVSISCRSSKSLLHSNGNTYLYWFLQRPGQSPQLLIYRMSNLASGVPDRFSGSGSGTAFTLRISRVEAEDVGVYYCMQYLEYPLTFGAGTKLELKR
Kd [1]: 1.5 nM | kon [1]: 2.88e+06 M⁻¹ s⁻¹ | Pseudovirus IC50 [2]: 119 nM | Pseudovirus IC50 [3]: 212 nM | Pseudovirus IC50 [4]: 94 nM | Kd [5]: 7.9 nM | Kd [6]: 8.4 nM | IC50 of pseudovirus entry (FIG. 3A) [7]: 25.6 µg/mL | IC50 of pseudovirus infection (FIG. 3A) [7]: ~173 nM | IC50 of pseudovirus entry (FIG. 3A) [8]: 2.05 µg/mL | IC50 of pseudovirus infection (FIG. 3A) [8]: ~14 nM

B2: 3A3 Fab (mouse Fab fragment) (Fab, V domains shown)
VH: B1 VH
VL: B1 VL
Kd [9]: 3.6 nM | koff [9]: 0.0046 s⁻¹ | kon [9]: 1.3e+06 M⁻¹ s⁻¹ | Kd [10]: 2.2 nM | koff [10]: 0.0049 s⁻¹ | kon [10]: 2.3e+06 M⁻¹ s⁻¹ | Kd [11]: ~2.5 nM | koff [11]: 0.005 s⁻¹ | kon [11]: ~2e+06 M⁻¹ s⁻¹ | Kd [12]: 2.2 nM and 3.2 nM | Kd [13]: 3.2 nM

B3: 4A5 full-length antibody (mouse variable region-human IgG1 constant region chimera) (antibody, V domains shown)
VH: QVQLQQSGAELAKPGASVKMSCKASGYTFTSYWMHWVKQRPGQGLEWVGMIDPSNSETRLNQKFKDKATLNVDKSSNTAYMQLSSLTSEDSAVYYCARLGRYWGQGTTLTVSS
VL: DIVMTQSHKFMSTSVGDRVSITCKASQNVGANVAWYQQKPGQSPKALIYSASYRYSGVPDRFTGSGSGTDFTLTISNVQSEDLAEYFCQQYNSYPYTSGGGTKLEIKR
Kd [14]: 11 nM | Kd [5]: 10 nM | Kd [15]: 11 nM | Kd [6]: 10 nM

B4: combination of AM3A3-5 heavy chain with unmodified hu3A3 (WT; ven3A3) light chain (antibody, V domains shown)
VH: QVQLVQSGAEVLKPGASVKLSCKASGFNIKDTYIHWLKQAPGQRLEWIGRIGPAIGNTIYAPKFQGKATITTDTSASTAYLELSSLRSEDTAVYYCARYYGYAYYYFDYWGQGTTVTVSS
VL: DIVMTQSPLSVPVTPGEPVSISCRSSKSLLHSNGNTYLYWFLQKPGQSPQLLIYRMSNLASGVPDRFSGSGSGTAFTLKISRVEAEDVGVYYCMQYLEYPLTFGAGTKLEIK
Fold improvement over WT/WT [16]: 0.5 fold

B5: combination of AM3A3-3 heavy chain with AM3A3-5 light chain (antibody, V domains shown)
VH: B4 VH with E10D, D31N, Y102S, A103S, F107L
VL: B4 VL with Y54A, N58T
Fold improvement over WT/WT [16]: 95.6 fold

B6: combination of unmodified hu3A3 (WT; ven3A3) heavy chain with AM3A3-3 light chain (antibody, V domains shown)
VH: B4 VH with Y102S, A103S
VL: B4 VL with L30H, S72N, G104D
Fold improvement over WT/WT [16]: 13.7 fold

B7: AM3A3-3 (affinity matured humanized 3A3) (antibody, V domains shown)
VH: B4 VH with E10D, D31N, Y102S, A103S, F107L
VL: B4 VL with L30H, S72N, G104D
Fold improvement over WT/WT [16]: 63.3 fold

B8: combination of AM3A3-3 heavy chain with unmodified hu3A3 (WT; ven3A3) light chain (antibody, V domains shown)
VH: B4 VH with E10D, D31N, Y102S, A103S, F107L
VL: B4 VL
Fold improvement over WT/WT [16]: 11.6 fold

B9: humanized 3A3 with ven3A3VH and ven3A3VL (antibody, V domains shown)
VH: B4 VH with Y102S, A103S
VL: B4 VL
Fold improvement over WT/WT [16]: 1 fold

B10: AM3A3-5 (affinity matured humanized 3A3) (antibody, V domains shown)
VH: B4 VH
VL: B4 VL with Y54A, N58T
Fold improvement over WT/WT [16]: 50.5 fold

B11: combination of unmodified hu3A3 (WT; ven3A3) heavy chain with AM3A3-5 light chain (antibody, V domains shown)
VH: B4 VH with Y102S, A103S
VL: B4 VL with Y54A, N58T
Fold improvement over WT/WT [16]: 63.7 fold

B12: combination of AM3A3-5 heavy chain with AM3A3-3 light chain (antibody, V domains shown)
VH: B4 VH
VL: B4 VL with L30H, S72N, G104D
Fold improvement over WT/WT [16]: 4.3 fold

B13: 4H2 full-length antibody (mouse variable region-human IgG1 constant region chimera) (antibody, V domains shown)
VH: EVQVVESGGGLVQPGGSRKLSCAASGFTFSSYGMSWVRQTPDKRLEWVATISSGGSYTYYPDSVKGRFTISRDNAKNNLYLQMSSLKSEDTAMYYCARDGYGNYVGMDYWGQGTSVTVSS
VL: DIVLTQSPAIMSASPGEKVTITCSASSSVSYMHWFQQKPGTSPKLWIYSTSNLASGVPARFSGSGSGTSYSLTISSMEAEDAATYYCQQWSSNSYTFGGGTKLEIKR
Kd [14]: 63 nM | Kd [5]: 9 nM | Kd [15]: 63 nM | Kd [6]: 9 nM
